Patent US20090280109A1, “ILT3 and ILT4-related compositions and methods” (The Trustees of Columbia University in the City of New York, priority 2001, published 2009)
“Also recorded” adds a separate entry of the source.

B1: IL-10: Interleukin 10, immunoregulatory cytokine (protein, UniProt P22301 19-178, looked up)
Interleukin-10: SPGQGTQSENSCTHFPGNLPNMLRDLRDAFSRVKTFFQMKDQLDNLLLKESLLEDFKGYLGCQALSEMIQFYLEEVMPQAENQDPDIKAHVNSLGENLKTLRLRLRRCHRFLPCENKSKAVEQVKNAFNKLQEKGIYKAMSEFDIFINYIEAYMTMKIRN

System: ILT3 and ILT4 on monocytes and DCs
Assay: Flow cytometry of ILT3, ILT4 and costimulatory molecules on APCs
Type: cell-based, human
Details: for ILT3 and ILT4 expression on APC (monocytes and dendritic cells): treatment of APC
Protocol: To study the expression of ILT3 or ILT4 and costimulatory molecules on normal APCs from peripheral blood or spleen cell suspensions, APCs were incubated with TS cells for 18 h with or without CD40L-transfected D1.1 cells (see Results). The cells were then collected, washed and saturating amounts of mAbs to ILT3 or ILT4 were added (21, 22). After 30 min on ice, cells were washed twice, stained with PE-goat-anti-mouse or PE-goat-anti-rat (Caltech, Burlingame, Calif.), then washed twice again, incubated with mouse or rat IgG (as a blocking antibody, Vector Labs, Burlingame, Calif.), washed twice, then stained with mAbs to FITC-CD14 or cychrome-CD11c, FITC-HLA-DR and PerCP-CD3 (Pharmingen, San Diego, Calif.). In other samples, mAbs to PE-CD80 and PE-CD86 were added along with markers for monocytes and DCs. CD3^+ T cells were gated-out and CD14^+ monocytes or CD14^− CD11c^+HLA-DR^+ immature DCs were analyzed with CellQuest software on a G4 Apple Macintosh Computer. Annexin V and PI staining of target APCs was done as described (12). Five parameter analyses (forward scatter, side scatter and three fluorescence channels) were used for list mode data analysis. The FL3 channel was used as a fluorescence trigger and FL1 and FL2 as analysis parameters.

| Molecule | ILT3 and ILT4 expression on APC (monocytes and dendritic cells) | CD86 expression on human monocytes and DCs (within 20 h of incubation) | expression of ILT3 and ILT4 on the membranes of human monocytes and DCs (within 20 h of incubation) |
| --- | --- | --- | --- |
| TNF-alpha | increase the expression |  |  |
| B1 | induces upregulation; also recorded: increase the expression | down-regulated | up-regulated |
